Measurements as given in article PMC3515690 (Nature structural & molecular biology, 2012).

Tests used:
[1] = molecular target: T1, Atg7 with residues 290–294 deleted (S. cerevisiae, UniProt P38862 1-630, deletion of residues 290–294); assay: cross-linking
T1 sequence (looked up): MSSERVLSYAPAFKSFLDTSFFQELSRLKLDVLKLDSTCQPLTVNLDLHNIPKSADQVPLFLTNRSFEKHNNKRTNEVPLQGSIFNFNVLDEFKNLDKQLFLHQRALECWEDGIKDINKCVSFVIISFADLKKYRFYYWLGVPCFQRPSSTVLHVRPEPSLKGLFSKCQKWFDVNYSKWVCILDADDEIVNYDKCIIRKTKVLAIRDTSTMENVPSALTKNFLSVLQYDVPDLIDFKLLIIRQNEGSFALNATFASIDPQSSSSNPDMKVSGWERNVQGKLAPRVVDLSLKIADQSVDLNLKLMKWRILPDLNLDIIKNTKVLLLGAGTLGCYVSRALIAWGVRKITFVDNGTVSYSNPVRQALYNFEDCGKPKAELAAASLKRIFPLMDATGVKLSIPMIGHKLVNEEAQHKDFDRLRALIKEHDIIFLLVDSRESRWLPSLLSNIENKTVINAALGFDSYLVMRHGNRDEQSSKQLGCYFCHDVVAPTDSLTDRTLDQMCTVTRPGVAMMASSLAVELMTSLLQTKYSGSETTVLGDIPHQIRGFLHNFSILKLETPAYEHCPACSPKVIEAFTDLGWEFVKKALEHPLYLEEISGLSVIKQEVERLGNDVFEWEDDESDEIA

[2] = molecular target: T2, Atg7 with a Gly-Gly-Ser-Gly insertion after Leu291 (S. cerevisiae, UniProt P38862 1-630, Gly-Gly-Ser-Gly insertion after Atg7’s Leu291); assay: cross-linking
T2 sequence (looked up): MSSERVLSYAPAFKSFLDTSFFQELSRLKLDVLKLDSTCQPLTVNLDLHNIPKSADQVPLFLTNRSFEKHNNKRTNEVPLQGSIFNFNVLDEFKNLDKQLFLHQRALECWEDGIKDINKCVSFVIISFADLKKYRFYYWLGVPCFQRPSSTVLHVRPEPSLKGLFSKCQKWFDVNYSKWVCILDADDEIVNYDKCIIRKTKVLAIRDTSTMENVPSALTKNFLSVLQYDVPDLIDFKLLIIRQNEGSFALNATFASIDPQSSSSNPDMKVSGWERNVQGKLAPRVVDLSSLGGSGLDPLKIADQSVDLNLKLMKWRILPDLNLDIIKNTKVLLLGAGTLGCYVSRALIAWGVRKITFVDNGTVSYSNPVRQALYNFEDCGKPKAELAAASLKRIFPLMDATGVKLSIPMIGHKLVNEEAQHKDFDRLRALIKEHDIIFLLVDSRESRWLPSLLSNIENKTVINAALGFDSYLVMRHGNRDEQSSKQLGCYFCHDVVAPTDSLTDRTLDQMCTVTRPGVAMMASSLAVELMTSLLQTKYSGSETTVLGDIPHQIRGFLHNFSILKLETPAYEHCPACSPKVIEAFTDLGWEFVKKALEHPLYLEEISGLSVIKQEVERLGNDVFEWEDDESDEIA

Atg7 (residues 1–613) = molecular target: T3, Atg7 (residues 1–613) (S. cerevisiae, UniProt P38862 1-613, catalytic Cys507 linked through bismaleimidoethane (BMOE) to Atg3 Cys234); assay: crystal structure
T3 sequence (looked up): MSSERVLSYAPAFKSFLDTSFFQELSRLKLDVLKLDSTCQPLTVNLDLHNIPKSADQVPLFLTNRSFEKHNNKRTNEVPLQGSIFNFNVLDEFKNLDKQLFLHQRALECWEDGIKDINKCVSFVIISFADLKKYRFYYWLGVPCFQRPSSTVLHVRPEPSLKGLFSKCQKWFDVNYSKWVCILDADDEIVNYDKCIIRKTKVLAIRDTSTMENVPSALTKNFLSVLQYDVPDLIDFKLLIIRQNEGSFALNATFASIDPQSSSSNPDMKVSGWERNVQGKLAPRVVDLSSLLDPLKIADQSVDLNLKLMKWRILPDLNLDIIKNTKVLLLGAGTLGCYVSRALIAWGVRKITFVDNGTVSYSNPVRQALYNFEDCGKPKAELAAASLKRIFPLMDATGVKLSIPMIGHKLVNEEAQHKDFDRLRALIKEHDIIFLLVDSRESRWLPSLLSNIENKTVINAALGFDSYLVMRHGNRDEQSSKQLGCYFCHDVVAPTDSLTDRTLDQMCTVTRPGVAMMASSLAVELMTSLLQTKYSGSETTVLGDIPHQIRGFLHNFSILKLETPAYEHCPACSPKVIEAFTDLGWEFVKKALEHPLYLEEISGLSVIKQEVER

Measured: binding result

B1: Atg3(C41A C76A C83A) (enzyme, S. cerevisiae)
chain: MIRSTLSSWREYLTPITHKSTFLTTGQITPEEFVQAGDYLAHMFPTWKWNEESSDISYRDFLPKNKQFLIIRKVPADKRAEQAVEVEGPDVIMKGFAEDGDEDDVLEYIGSETEHVQSTPAGGTKDSSIDDIDELIQDMEIKEEDENDDTEEFNAKGGLAKDMAQERYYDLYIAYSTSYRVPKMYIVGFNSNGSPLSPEQMFEDISADYRTKTATIEKLPFYKNSVLSVSIHPCKHANVMKILLDKVRVVRQRRRKELQEEQELDGVGDWEDLQDDIDDSLRVDQYLIVFLKFITSVTPSIQHDYTMEGW
modifications: Cys234 reacted with bismaleimidoethane (BMOE)
binds: all assays above
